Results on 8 molecules are retold here after doi:10.1101/2022.10.28.514188 (bioRxiv, 2022).

For one data set, the target named is CLPB-NBD^E425Q (human) (UniProt Q9H078). As to the kind of experiment: cryo-EM structure.
In data set [1] the target is CLPB^isoform1 (isoform-1 of CLPB) (human). As to the kind of experiment: negative-stain EM + cryo-EM 2D classification.
For data set [2], the target named is CLPB-NBD (NBD-only variant, N-terminal ANK domain truncated) (human) (UniProt Q9H078). As to the kind of experiment: cryo-EM 2D classification.
The data set “SEC” concerns the molecule itself. Description: SEC.
Data set [3] concerns the molecule itself. As to the kind of experiment: cryo-EM structure.
Data set [4] concerns the molecule itself. As to the kind of experiment: cryo-EM 2D classification.
Data set [5] concerns the molecule itself. As to the kind of experiment: SEC + other: negative-stain EM.
Data set [6] concerns the molecule itself. Description: cryo-EM structure. This is another data set of the same source.

“And” between values parts separate entries of the source, which are not always exact repeats. Equal entries are not always repeated.

Consider “CLPB-NBD^E425Q (from UniProt Q9H078-2 1-677) (domain or fragment)”, for which the stoichiometry N with CLPB-NBD^E425Q (human) was 6 and 7 and 9. Turning to “CLPB^isoform1 (isoform-1 of CLPB) (enzyme)”, the stoichiometry N in data set [1] amounted to 14. As to “CLPB-NBD (NBD-only variant, N-terminal ANK domain truncated) (from UniProt Q9H078-2 1-677) (domain or fragment)”, in data set [2], the stoichiometry N was 6 and 7.

B1: CLPB^Δ201-232 (insertion between AM2 and AM3 deleted) (enzyme)
chain: YSKSPSNKDAALLEAARANNMQEVSRLLSEGADVNAKHRLGWTALMVAAINRNNSVVQVLLAAGADPNLGDDFSSFKGCTALHYAVLADDYRTVKELLDGGANPLQRNEMGHTPLDYAREGEVMKLLRTSEAKYQEKQRKREAEERRRFPLEQRLKEHIIGQESAIATVGAAIRRKENGWYDEEHPLVFLFLGSSGIGKTELAKQTAKYMHKDAKKGFIRLDMSEFQERHEVAKFIGSPPGYVGHEEGGQLTKKLKQCPNAVVLFDEVDKAHPDVLTIMLQLFDEGRLTDGKGKTIDCKDAIFIMTSNVASDEIAQHALQLRQEALEMSRNRIAENLGDVQISDKITISKNFKENVIRPILKAHFRRDEFLGRINEIVYFLPFCHSELIQLVNKELNFWAKRAKQRHNITLLWDREVADVLVDGYNVHYGARSIKHEVERRVVNQLAAAYEQDLLPGGCTLRITVEDSDKQLLKSPELPSPQAEKRLPKLRLEIIDKDSKTRRLDIRAPLHPEKVCNTI
As to B1, in “SEC”, the binding result is listed as “binds”.

B2: CLPB-N127 (human CLPB isoform 2 starting from the PARL cleavage site), wild type (enzyme)
chain: YSKSPSNKDAALLEAARANNMQEVSRLLSEGADVNAKHRLGWTALMVAAINRNNSVVQVLLAAGADPNLGDDFSSVYKTAKEQGIHSLEVLITREDDFNNRLNNRASFKGCTALHYAVLADDYRTVKELLDGGANPLQRNEMGHTPLDYAREGEVMKLLRTSEAKYQEKQRKREAEERRRFPLEQRLKEHIIGQESAIATVGAAIRRKENGWYDEEHPLVFLFLGSSGIGKTELAKQTAKYMHKDAKKGFIRLDMSEFQERHEVAKFIGSPPGYVGHEEGGQLTKKLKQCPNAVVLFDEVDKAHPDVLTIMLQLFDEGRLTDGKGKTIDCKDAIFIMTSNVASDEIAQHALQLRQEALEMSRNRIAENLGDVQISDKITISKNFKENVIRPILKAHFRRDEFLGRINEIVYFLPFCHSELIQLVNKELNFWAKRAKQRHNITLLWDREVADVLVDGYNVHYGARSIKHEVERRVVNQLAAAYEQDLLPGGCTLRITVEDSDKQLLKSPELPSPQAEKRLPKLRLEIIDKDSKTRRLDIRAPLHPEKVCNTI
In the case of B2, the “stoichiometry N” value in “cryo-EM structure [3]” was found to be 14; in data set [4] it was 12.

B3: CLPB^R178E (enzyme)
chain: YSKSPSNKDAALLEAARANNMQEVSRLLSEGADVNAKHRLGWTALMVAAINENNSVVQVLLAAGADPNLGDDFSSVYKTAKEQGIHSLEVLITREDDFNNRLNNRASFKGCTALHYAVLADDYRTVKELLDGGANPLQRNEMGHTPLDYAREGEVMKLLRTSEAKYQEKQRKREAEERRRFPLEQRLKEHIIGQESAIATVGAAIRRKENGWYDEEHPLVFLFLGSSGIGKTELAKQTAKYMHKDAKKGFIRLDMSEFQERHEVAKFIGSPPGYVGHEEGGQLTKKLKQCPNAVVLFDEVDKAHPDVLTIMLQLFDEGRLTDGKGKTIDCKDAIFIMTSNVASDEIAQHALQLRQEALEMSRNRIAENLGDVQISDKITISKNFKENVIRPILKAHFRRDEFLGRINEIVYFLPFCHSELIQLVNKELNFWAKRAKQRHNITLLWDREVADVLVDGYNVHYGARSIKHEVERRVVNQLAAAYEQDLLPGGCTLRITVEDSDKQLLKSPELPSPQAEKRLPKLRLEIIDKDSKTRRLDIRAPLHPEKVCNTI
On to B3, for which the binding result in data set [5] was “binds”.

B4: CLPB^R227E (enzyme)
chain: YSKSPSNKDAALLEAARANNMQEVSRLLSEGADVNAKHRLGWTALMVAAINRNNSVVQVLLAAGADPNLGDDFSSVYKTAKEQGIHSLEVLITREDDFNNELNNRASFKGCTALHYAVLADDYRTVKELLDGGANPLQRNEMGHTPLDYAREGEVMKLLRTSEAKYQEKQRKREAEERRRFPLEQRLKEHIIGQESAIATVGAAIRRKENGWYDEEHPLVFLFLGSSGIGKTELAKQTAKYMHKDAKKGFIRLDMSEFQERHEVAKFIGSPPGYVGHEEGGQLTKKLKQCPNAVVLFDEVDKAHPDVLTIMLQLFDEGRLTDGKGKTIDCKDAIFIMTSNVASDEIAQHALQLRQEALEMSRNRIAENLGDVQISDKITISKNFKENVIRPILKAHFRRDEFLGRINEIVYFLPFCHSELIQLVNKELNFWAKRAKQRHNITLLWDREVADVLVDGYNVHYGARSIKHEVERRVVNQLAAAYEQDLLPGGCTLRITVEDSDKQLLKSPELPSPQAEKRLPKLRLEIIDKDSKTRRLDIRAPLHPEKVCNTI
In the case of B4, the binding result in data set [5] is on record as “binds”.

B5: CLPB^E425Q (Walker B mutant of CLPB-N127, isoform 2) (enzyme)
chain: YSKSPSNKDAALLEAARANNMQEVSRLLSEGADVNAKHRLGWTALMVAAINRNNSVVQVLLAAGADPNLGDDFSSVYKTAKEQGIHSLEVLITREDDFNNRLNNRASFKGCTALHYAVLADDYRTVKELLDGGANPLQRNEMGHTPLDYAREGEVMKLLRTSEAKYQEKQRKREAEERRRFPLEQRLKEHIIGQESAIATVGAAIRRKENGWYDEEHPLVFLFLGSSGIGKTELAKQTAKYMHKDAKKGFIRLDMSEFQERHEVAKFIGSPPGYVGHEEGGQLTKKLKQCPNAVVLFDQVDKAHPDVLTIMLQLFDEGRLTDGKGKTIDCKDAIFIMTSNVASDEIAQHALQLRQEALEMSRNRIAENLGDVQISDKITISKNFKENVIRPILKAHFRRDEFLGRINEIVYFLPFCHSELIQLVNKELNFWAKRAKQRHNITLLWDREVADVLVDGYNVHYGARSIKHEVERRVVNQLAAAYEQDLLPGGCTLRITVEDSDKQLLKSPELPSPQAEKRLPKLRLEIIDKDSKTRRLDIRAPLHPEKVCNTI
Regarding B5, the “stoichiometry N” value in the data set “cryo-EM structure [6]” was 12.
